The values below come from paper PMC9108607, “The intrinsically disordered CARDs‐Helicase linker in RIG‐I is a molecular gate for RNA proofreading”.

One series deals with T1, Δ190-200 RIG-I (human, UniProt O95786 1-925, del190-200).
T1 sequence: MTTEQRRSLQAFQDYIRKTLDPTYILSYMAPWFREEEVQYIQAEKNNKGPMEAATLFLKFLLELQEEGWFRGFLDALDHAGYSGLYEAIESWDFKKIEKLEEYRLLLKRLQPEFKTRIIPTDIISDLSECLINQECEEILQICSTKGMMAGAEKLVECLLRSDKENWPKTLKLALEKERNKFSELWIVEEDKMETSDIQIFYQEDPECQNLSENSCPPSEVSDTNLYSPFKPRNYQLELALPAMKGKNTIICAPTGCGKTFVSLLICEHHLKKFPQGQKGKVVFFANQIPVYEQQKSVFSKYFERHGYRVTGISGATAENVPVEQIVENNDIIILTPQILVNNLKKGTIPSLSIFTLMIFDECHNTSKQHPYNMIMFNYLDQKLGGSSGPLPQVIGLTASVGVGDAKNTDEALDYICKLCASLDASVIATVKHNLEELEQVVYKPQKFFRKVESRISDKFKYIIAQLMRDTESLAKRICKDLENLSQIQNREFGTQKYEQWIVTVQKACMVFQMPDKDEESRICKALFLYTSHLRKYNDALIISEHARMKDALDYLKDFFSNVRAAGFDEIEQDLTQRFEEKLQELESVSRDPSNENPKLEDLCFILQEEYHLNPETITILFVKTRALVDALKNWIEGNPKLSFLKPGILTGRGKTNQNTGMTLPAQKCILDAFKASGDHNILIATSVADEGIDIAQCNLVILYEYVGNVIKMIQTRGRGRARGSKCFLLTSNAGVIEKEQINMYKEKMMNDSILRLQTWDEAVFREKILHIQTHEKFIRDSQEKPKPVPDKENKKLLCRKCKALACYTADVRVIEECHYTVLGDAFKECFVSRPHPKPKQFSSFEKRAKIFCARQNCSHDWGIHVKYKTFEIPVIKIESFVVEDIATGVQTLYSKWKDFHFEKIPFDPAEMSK
Briefly: EMSA; streptavidin, ±2 mM ATP; oligomerizes with ATP; Buffer A: 50 mM MOPS pH 7.4, 5 mM DTT, 5 mM MgCl2, 0.01% Tween20, 25°C (fluorimetry: 15 nM RNA; ATPase: 15 nM protein, 1 mM ATP); EMSA in Buffer A at 4°C. The settings on record: protein: recombinant; tags: 6xHis-SUMO removed by Ulp1; label: 3' DY547 and 5' biotin on strand 2; blunt. A general note: A gel shift assay detects complexes by their altered migration in electrophoresis.

Another series addresses T2, WT RIG-I (human, UniProt O95786 1-925).
T2 sequence: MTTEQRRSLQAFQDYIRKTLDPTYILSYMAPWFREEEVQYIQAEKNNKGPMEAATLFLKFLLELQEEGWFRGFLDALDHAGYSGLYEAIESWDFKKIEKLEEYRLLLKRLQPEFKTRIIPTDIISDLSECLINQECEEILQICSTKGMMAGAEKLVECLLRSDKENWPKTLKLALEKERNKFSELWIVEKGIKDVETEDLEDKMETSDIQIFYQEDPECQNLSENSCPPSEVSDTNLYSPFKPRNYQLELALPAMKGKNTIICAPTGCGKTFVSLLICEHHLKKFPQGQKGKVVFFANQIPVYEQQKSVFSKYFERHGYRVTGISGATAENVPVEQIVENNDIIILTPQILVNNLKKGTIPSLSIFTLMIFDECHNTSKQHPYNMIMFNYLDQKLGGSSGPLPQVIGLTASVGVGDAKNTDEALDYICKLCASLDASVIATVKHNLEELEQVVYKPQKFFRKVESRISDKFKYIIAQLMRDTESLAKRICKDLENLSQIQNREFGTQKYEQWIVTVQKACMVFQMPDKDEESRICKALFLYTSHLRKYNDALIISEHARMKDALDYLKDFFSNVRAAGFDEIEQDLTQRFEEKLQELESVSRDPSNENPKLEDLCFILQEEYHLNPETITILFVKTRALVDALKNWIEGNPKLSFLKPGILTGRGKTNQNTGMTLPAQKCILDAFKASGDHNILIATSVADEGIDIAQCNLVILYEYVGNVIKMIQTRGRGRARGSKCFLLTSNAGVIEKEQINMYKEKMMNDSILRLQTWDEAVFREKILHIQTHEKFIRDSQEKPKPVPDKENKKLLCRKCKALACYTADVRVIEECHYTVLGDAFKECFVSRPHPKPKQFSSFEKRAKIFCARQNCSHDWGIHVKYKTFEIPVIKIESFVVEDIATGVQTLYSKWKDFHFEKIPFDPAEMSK
The series can be described thus: RNA-dependent ATPase titration (KD,app); 1 mM ATP; Buffer A: 50 mM MOPS pH 7.4, 5 mM DTT, 5 mM MgCl2, 0.01% Tween20, 25°C (fluorimetry: 15 nM RNA; ATPase: 15 nM protein, 1 mM ATP); EMSA in Buffer A at 4°C. As to conditions: protein: recombinant; tags: 6xHis-SUMO removed by Ulp1; label: 3' DY547 and 5' biotin on strand 2; blunt.

B1: 5'ppp ds27 (dsRNA)
RNA 1: AUACGUCCUGAUAGUUAGUAUCCAUCG
RNA 2: CGAUGGAUACUAACUAUCAGGACGUAU
modifications: 5'ppp on strand 1
Consider B1, for which the binding result with Δ190-200 RIG-I was “binds”. In addition, the “apparent KD relative to Hel-CTD” value with WT RIG-I is approximately 5 fold weaker than Hel-CTD.
